Data on one substance can be found in patent US20210380664A1.

Test [1] concerns the target HCMV virus particles, strain TB40/E. Kind of test: immunofluorescence: intensity of anti-human Fc staining per virus particle on HFFs at different PDGFR-alpha-Fc concentrations.
Test [2] shares this target. Put plainly: cell-based or functional assay.

For “soluble PDGFR-alpha-Fc chimera (R&D 6765-PR-050) (Fc fusion)”, the EC50 in test [1] worked out at 0.108 µg/mL. In test [2], this substance returned an EC50 of inhibition of infection of HECs (IE antigen staining) of 0.02 to 0.05 µg/mL; an EC50 of inhibition of infection of HFFs (IE antigen staining) of 0.01 to 0.02 µg/mL; a complete abrogation of infection of HFFs of 200 ng/mL; an infectivity of already adsorbed virus on HFFs (200 ng/ml, post adsorption) of 50%. Moreover, in test [2], the reduction of adsorption of pre-treated virus particles to HECs (100 ng/ml) worked out at 75%, the reduction of adsorption of pre-treated virus particles to HFFs (100 ng/ml) worked out at 50% and the reduction of penetration of pre-treated virus particles into HFFs (100 ng/ml) came to 75%.

As usually defined, the EC50 is the concentration giving half of the maximal effect.
